US20190016785A1 (HUMABS BIOMED, published 2019)

Legend:
[1] = molecular target: HBsAg of HBV genotype D (GenBank J02203, ayw3) (hepatitis B virus, genotype D, UniProt P03138 164-389); assay: flow cytometry, permeabilized transfected Hep2 cells, 5000 to 7 ng/ml
HBsAg P120T = HBsAg P120T (hepatitis B virus, genotype D, UniProt Q913A6 175-400); assay: flow cytometry, permeabilized transfected Hep2 cells, 5 µg/ml

B1: HBC34-V7 (antibody, V domains shown)
VH: ELQLVESGGGWVQPGGSQRLSCAASGRIFRSFYMSWVRQAPGKGLEWVATINQDGSEKLYVDSVKGRFTISRDNAKNSLFLQMNNLRVEDTAVYYCAAWSGNSGGMDVWGQGTTVSVSS
VL: SYELTQPPSVSVSPGQTVSIPCSGDKLGNKNVCWFQHKPGQSPVLVIYEVKYRPSGIPERFSGSNSGNTATLTISGTQAMDEAAYFCQTFDSTTVVFGGGTRLTVL
notes: also called variant 7; HMB34-V7
B1: binds [1].

B2: HBC34 (antibody, V domains shown)
VH: ELQLVESGGGWVQPGGSQRLSCAASGRIFRSFYMSWVRQAPGKGLEWVATINQDGSEKLYVDSVKGRFTISRDNAKNSLFLQMNNLRVEDTAVYYCAAWSGNSGGMDVWGQGTTVSVSS
VL: SYELTQPPSVSVSPGQTVSIPCSGDKLGNKNVCWFQHKPGQSPVLVIYEVKYRPSGIPERFSGSNSGNTATLTISGTQAMDEAAYFCQTWDSTTVVFGGGTRLTVL
notes: also called human monoclonal antibody HBC34; WT
B2: binds (HBsAg P120T).
